Molecular target: cynomolgus CD3 on mfCD3 engineered Jurkat cells (cynomolgus CD3ε and CD3δ in place of the human versions) (cynomolgus) (UniProt Q95LI5)
Assay: flow cytometry on mfCD3 engineered Jurkat cells, median EC50, n=2

Sequence of cynomolgus CD3 on mfCD3 engineered Jurkat cells (cynomolgus CD3ε and CD3δ in place of the human versions) (cynomolgus) (Q95LI5 22-198, stated change not applied, chain 1 of 2): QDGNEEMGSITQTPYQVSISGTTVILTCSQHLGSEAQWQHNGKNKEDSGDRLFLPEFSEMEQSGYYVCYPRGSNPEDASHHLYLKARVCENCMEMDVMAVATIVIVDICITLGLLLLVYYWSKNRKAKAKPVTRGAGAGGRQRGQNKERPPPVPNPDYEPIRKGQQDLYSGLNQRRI
Sequence of cynomolgus CD3 on mfCD3 engineered Jurkat cells (cynomolgus CD3ε and CD3δ in place of the human versions) (cynomolgus) (Q95LI8 22-171, stated change not applied, chain 2 of 2, further chain): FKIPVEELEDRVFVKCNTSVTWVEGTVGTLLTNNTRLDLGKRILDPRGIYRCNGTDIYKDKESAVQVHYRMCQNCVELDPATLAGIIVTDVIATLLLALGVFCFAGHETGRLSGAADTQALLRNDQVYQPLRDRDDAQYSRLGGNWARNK
Sequence of REGN5458 (bsAb25441D), anti-BCMA x anti-CD3 bispecific antibody (VH): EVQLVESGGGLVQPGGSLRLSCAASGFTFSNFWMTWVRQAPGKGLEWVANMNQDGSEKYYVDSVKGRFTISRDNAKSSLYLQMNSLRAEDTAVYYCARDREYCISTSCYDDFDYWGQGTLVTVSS
Sequence of REGN5458 (bsAb25441D), anti-BCMA x anti-CD3 bispecific antibody (VH): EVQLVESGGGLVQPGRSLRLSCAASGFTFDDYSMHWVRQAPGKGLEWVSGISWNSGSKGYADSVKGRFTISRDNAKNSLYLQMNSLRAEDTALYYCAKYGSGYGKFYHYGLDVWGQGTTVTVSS
Sequence of REGN5458 (bsAb25441D), anti-BCMA x anti-CD3 bispecific antibody (VL): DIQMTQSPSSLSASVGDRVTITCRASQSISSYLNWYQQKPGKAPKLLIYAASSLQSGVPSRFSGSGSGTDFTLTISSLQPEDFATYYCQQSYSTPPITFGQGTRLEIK

EC50: 15.1 nM
Substance: REGN5458 (bsAb25441D), anti-BCMA x anti-CD3 bispecific antibody
